This is an account of results in US20260042834A1 (HBM ALPHA THERAPEUTICS, published 2026).

The target in one assay is T1, CRH (CT-Biotin) (human and mouse, biotin on the added C-terminal K (-K-Biotin)).
T1 construct: also called Peptide 4 (CRH-Biotin); C-terminally biotinylated corticotropin-releasing hormone
T1 peptide: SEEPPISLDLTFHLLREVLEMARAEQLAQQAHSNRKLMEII
Briefly: ELISA, C-terminally biotinylated CRH on streptavidin-coated plate. Here is the method:
(§1) Streptavidin (Thermo, Cat: 21125) was diluted in PBS to a concentration of 2 μg/ml. 100 μl of diluted streptavidin was added per well to ELISA microplates, and the plates were incubated overnight at 4° C. […] 100 μL of 3,3′,5,5′-tetramethylbenzidine (TMB) substrate (Biopanda, Cat: TMB-S-003) was added, and the plates were incubated at room temperature for 15 minutes. 100 μL of ELISA stopping solution (Solarbio, Cat #: C1058) was added to terminate the reaction, and the optical density at 450 nm (OD450 nm) was determined by an ELISA plate reader (Molecular Devices, Spectra max 384 plus).

Assay [1] has as its target T2, corticotropin-releasing hormone (CRH) peptide (human and mouse, not fully specified).
T2 peptide: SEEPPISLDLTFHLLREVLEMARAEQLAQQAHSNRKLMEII
Briefly: cell-based or functional assay.

In a further assay the target is T3, CRH (NT-Biotin) (human and mouse, not fully specified; biotin at the N-terminus).
T3 construct: also called Biotin-CRH; N-terminally biotinylated corticotropin-releasing hormone
T3 peptide: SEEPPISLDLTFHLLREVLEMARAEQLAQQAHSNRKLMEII
Briefly: ELISA, N-terminally biotinylated CRH on streptavidin-coated plate. The procedure:
as §1
A general note: ELISA stands for enzyme-linked immunosorbent assay.

In assay [2] the target is T4, corticotropin-releasing hormone (CRH) peptide (human and mouse (same sequence), not fully specified).
T4 peptide: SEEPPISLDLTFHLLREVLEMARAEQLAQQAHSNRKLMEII
Briefly: cell-based or functional assay.

B1: PR301806 (antibody, human IgG1, kappa, V domains shown)
VH: QVQLQQPGAELVKPGTSVKMSCKASGYTFTSYWMHWVKQRPGQGLEWIGDIYPGSDSTNYNEKFKSKASLTVDTSSSTAYMQLSSLTSEDSAVYYCARSITTTTFWYFDVWGAGTTVTVSS
VL: DVLMTQTPLSLPVSLGDQASISCRSSQSFVYSNGNTYLQWYLQKPGQSPKLLIYKVSNRFSGVPDRFSGSGSGTDFTLKISRVEAEDLGVYYCFQGSHVPPTFGAGTKLELKR
notes: Mouse variable domains, expressed recombinantly with human IgG1 wildtype Fc; also called Series 6 mAb
For B1, the EC50 came out at 6 pM with CRH (CT-Biotin) and 13 pM in the assay with CRH (NT-Biotin). The “hCRHR1 Reporter IC50” value in assay [1] is 4530 pM.

B2: PR301780 (antibody, human IgG1, kappa, V domains shown)
VH: QIQLVQSGPELKKPGETVKISCKASGYTFTNFGLNWVKQAPGKGLKWMGWINTYTGEPTYTDDFKGRFAFSLETSASTAYLQINNLKKEDTATYFCARGTYRDDGAWFAYWGQGTLVTVSA
VL: DVLMTQTPLSLPVSLGDQASISCRSSQIIVHSNGNTYLEWYLQKPGQSPKLLIYKVSNRFSGVPDRFSGSGSGTDFTLKISRVEAEDLGVYHCFQGSHVPWTFGGGTKLEIKR
notes: Mouse variable domains, expressed recombinantly with human IgG1 wildtype Fc; also called Series 7 mAb
With B2, the EC50 came out at 30 pM with CRH (CT-Biotin) and 938 pM with CRH (NT-Biotin). Also, the “hCRHR1 Reporter IC50” value in assay [1] worked out at 61100 pM.

B3: PR004289 (antibody, human IgG1, kappa, V domains shown)
VH: EVQLVESGGVLVQPGGSLRLSCAASGFIFSSYWMTWVRQAPGKGLEWVANIKQDGSEKYYVDSVKGRFTISRDNAKNSLFLQMNSLRAEDTAVYYCARTLIFDYWGQGTLVTVSS
VL: DIVMTQSPLSLPVTPGEPASISCRSSQSLLHSTGYNSLEWYLQKPGQSPQLLIYLGSNRASGVPDRFSGSGSGTDFTLKISRVEAEDVGIYYCMQTLQTPITFGQGTRLEIKR
notes: Expressed recombinantly with human IgG1 wildtype Fc; also called Hybridoma Clone 16g2; Series 1 mAb
In the case of B3, the EC50 in the assay with CRH (CT-Biotin) and with CRH (NT-Biotin) was 23 pM each time. In assay [1], the “hCRHR1 Reporter IC50” value was 3130 pM.

B4: PR302333 (antibody, human IgG1, kappa, V domains shown)
VH: QIQLVQSGPELKKPGETVKISCKASGYTFTNFGMNWVKQAPGKVLKWMGWINTYTGEPIYADDFKGRFAFSLETSASAAYLQINNLKNEDTATYFCSRSTMITTGGVFAYWGQGTLVTVSA
VL: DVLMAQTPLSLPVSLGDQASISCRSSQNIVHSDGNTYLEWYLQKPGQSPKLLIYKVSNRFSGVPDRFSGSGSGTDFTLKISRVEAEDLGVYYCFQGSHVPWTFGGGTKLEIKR
notes: as for B2
Regarding B4, the EC50 came to 22 pM with CRH (CT-Biotin) and 35 pM with CRH (NT-Biotin). For the same molecule, the “hCRHR1 Reporter IC50” value in assay [1] was 1920 pM.

B5: PR301788 (antibody, human IgG1, kappa, V domains shown)
VH: EMKLEESGGGLVQPGGSMKLSCVASGFTFSNYWMNWVRQSPEKGLEWVAEIRLKSNNYATHYAESVKGRFTISRDDSKSSVYLQMNNLRAEDTGIYYCTIGTLVYWGQGTLVTVSA
VL: DIVLTQSPASLAVSLGQRATISCRASQSVSTSTYNYMHWFQQKPGQPPKLLIKFASNLESGVPARFSGSGSGTDFTLNIHPVEEEDTATFYCQHSWEIPYTFGGGTKLEIKR
notes: Mouse variable domains, expressed recombinantly with human IgG1 wildtype Fc; also called Series 5 mAb
On to B5, for which the EC50 with CRH (CT-Biotin) came to 11 pM; with CRH (NT-Biotin), 18 pM. Further, in assay [1], the “hCRHR1 Reporter IC50” value is 460 pM.

B6: PR301803 (antibody, human IgG1, kappa, V domains shown)
VH: EVKLEESGGGLVQPGGSMKLSCVASGFTFNNYWMNWVRQSPEKGLEWVAEIRLKSNNYATHYAESLKGRFTISRDDSKSSVYLQMNNLRAEDTGIYYCTVGTLVYWGQGTLVTVSA
VL: DIVLTQSPASLVVSLGQRATISCRASQSVSTSTYNYMHWYQQKPGQPPKLLIKFASNLESGVPARFSGSGSGTDFTLNIHPVEEEDTATFYCQHSWEIPYTFGGGTKLEIKR
notes: as for B5
B6: the EC50 was determined as 13 pM with CRH (CT-Biotin) and 21 pM with CRH (NT-Biotin). The “hCRHR1 Reporter IC50” value in assay [1] was determined as 1040 pM.

B7: PR301306 (antibody, human IgG1, kappa, V domains shown)
VH: EVKLEESGGGLVQPGGSMKLSCVASGFTFSNYWMNWVRQSPEKGLEWVAEIRLKSNNYATLYAESVKGRFTISRDDSKSSVYLQMNNLRAEDTGIYYCTRGTLVYWGQGTLVTVSA
VL: DIVLTQSPASLAVSLGQRATISCRASQSVSTSDYNYMHWYQQKPGQPPKLLIKYASNLESGVPARFSGSGSGTDFTLNIHPVEEEDTATYYCQHSWEIPYTFGGGTKLEIKR
notes: Mouse variable domains, expressed recombinantly with human IgG1 wildtype Fc; also called Series 3 mAb
With B7, the EC50 with CRH (CT-Biotin) was determined as 37 pM; with CRH (NT-Biotin), 94 pM. The “hCRHR1 Reporter IC50” value in assay [1] was determined as 35600 pM.

B8: PR301777 (antibody, human IgG1, kappa, V domains shown)
VH: EMKLEESGGGLVQPGGSMKLSCVASGFTFSNYWMNWVRQSPEKGLEWVAEIRLKSNNYATHYAESVKGRFTISRDDSKSGVYLQMNNLGAEDTGIYYCTVGTLVYWGQGTLVTVSA
VL: DIVLTQSPASLAVSLGQRATISCRASQSVSTSTYNYMHWFQQKPGQPPKLLIKFASNLESGVPARFSGSGSGTDFTLNIHPVEEEDTATFYCQHSWEIPYTFGGGTKLEIKR
notes: as for B5
Consider B8, for which the results for the EC50 in the assay with CRH (CT-Biotin) and with CRH (NT-Biotin) were 38 pM and 27 pM, respectively. Further, in assay [1], the “hCRHR1 Reporter IC50” value is 609 pM.

B9: PR301790 (antibody, human IgG1, kappa, V domains shown)
VH: EMKLEESGGGLVQPGGSMKLSCVASGFTFSNYWMNWVRQSPEKGLEWVAEIRLKSNNYATHYAESVKGRFTISRDDSKSSVYLQMNNLRAEDTGIYYCTIGTLVYWGQGTLVTVSA
VL: DIVLTQSPASLAVSLGQRATISCRASQSVSTSSYNYMHWYQQKPGQPPKLLIKFASNLESGVPARFSGSGSGTDFTLNIHPVEEEDTATFYCQHSWEIPYTFGGGTKLEIKR
notes: as for B5
Consider B9, for which the EC50 with CRH (CT-Biotin) was found to be 19 pM; with CRH (NT-Biotin), 17 pM. In assay [1], the “hCRHR1 Reporter IC50” value is 55 pM.

B10: PR302309-18 (antibody, human IgG1, kappa, V domains shown)
VH: QVQLVQSGAEVKKPGASVKVSCKASGYTFTNYGMNWVRQAPGQRLEWMGWINTYTGEPIYTDDFKGRVTITRDTSASTAYMELSSLRSEDTAVYYCARSTMITTGGVFAYWGQGTLVTVSS
VL: DVVMTQSPLSLPVTLGQPASISCRSSQTIVHSDGNTYLEWYQQRPGQSPRLLIYKVSNRFSGVPDRFSGSGSGTDFTLKISRVEAEDLGVYYCFQGSHVPWTFGGGTKVEIKR
As to B10, the “hCRHR1 Luciferase Reporter Assay IC50” value in assay [2] was determined as 1730 pM.

B11: PR302309-20 (antibody, human IgG1, kappa, V domains shown)
VH: QIQLVQSGAEVKKPGASVKVSCKASGYTFTNYGMNWVRQAPGQRLEWMGWINTYTGEPIYTDDFKGRVTITLDTSASTAYMELSSLRSEDTAVYYCSRSTMITTGGVFAYWGQGTLVTVSS
VL: DVVMTQTPLSLSVTPGQPASISCRSSQTIVHSDGNTYLEWYLQKPGQSPQLLIYKVSNRFSGVPDRFSGSGSGTDFTLKISRVEAEDLGVYYCFQGSHVPWTFGGGTKVEIKR
Consider B11, for which, in assay [2], the “hCRHR1 Luciferase Reporter Assay IC50” value was found to be 3070 pM.

B12: PR302309-21 (antibody, human IgG1, kappa, V domains shown)
VH: QIQLVQSGAEVKKPGASVKVSCKASGYTFTNYGMNWVRQAPGQRLEWMGWINTYTGEPIYTDDFKGRVTITLDTSASTAYMELSSLRSEDTAVYYCSRSTMITTGGVFAYWGQGTLVTVSS
VL: DVVMTQTPLSSPVTLGQPASISCRSSQTIVHSDGNTYLEWYQQRPGQPPRLLIYKVSNRFSGVPDRFSGSGAGTDFTLKISRVEAEDLGVYYCFQGSHVPWTFGGGTKVEIKR
As to B12, the “hCRHR1 Luciferase Reporter Assay IC50” value in assay [2] amounted to 8440 pM.

B13: PR302309-19 (antibody, human IgG1, kappa, V domains shown)
VH: QIQLVQSGAEVKKPGASVKVSCKASGYTFTNYGMNWVRQAPGQRLEWMGWINTYTGEPIYTDDFKGRVTITLDTSASTAYMELSSLRSEDTAVYYCSRSTMITTGGVFAYWGQGTLVTVSS
VL: DVVMTQSPLSLPVTLGQPASISCRSSQTIVHSDGNTYLEWYQQRPGQSPRLLIYKVSNRFSGVPDRFSGSGSGTDFTLKISRVEAEDLGVYYCFQGSHVPWTFGGGTKVEIKR
Consider B13, for which the “hCRHR1 Luciferase Reporter Assay IC50” value in assay [2] was determined as 4830 pM.

B14: PR301612 (antibody, human IgG1, kappa, V domains shown)
VH: EVKLEESGGGLVQPGGSIKLSCVASGFTFSGAWMAWVRQSPEKGLEWVAEIKNKANNHATFYAESVKGRFIISRDDSKSSVYLQMNSLRAEDTGTYYCTLPDVWGTGTTVTVSS
VL: QIVLTQSPAIMSASPGERVTISCSASSSVSNMYWYLQKPGSSPKPWIYRTSNLASGVPARFSGSGSGTSYSLTISSMEAEDVATYYCQQYHSFPRTFGGGTKLEIKR
notes: Mouse variable domains, expressed recombinantly with human IgG1 wildtype Fc; also called Series 4 mAb
Turning to B14, the response with CRH (CT-Biotin) was half-maximal at 33 pM (EC50). Also, the “hCRHR1 Reporter IC50” value in assay [1] is 18100 pM.

The EC50 is the concentration at which the effect is half-maximal.
